B1: Protein GLUTAMINE DUMPER 1 (Arabidopsis thaliana (Mouse-ear cress)), O81775 (parent)
chain: MRPLSVQSKFEDVATSTSVNHHGVTPQSPWHSPVPYLFGGLAAMLGLIAFALLILACSYWRLSSSGEEDGQNVDEEKESRSGDKAANGAYEEKFLVIMAGEDLPRYLATPAMKKCTCGGHEGKMVISQEESVAKEEEKMREGEEEKVKDTGETTTTSH
partner: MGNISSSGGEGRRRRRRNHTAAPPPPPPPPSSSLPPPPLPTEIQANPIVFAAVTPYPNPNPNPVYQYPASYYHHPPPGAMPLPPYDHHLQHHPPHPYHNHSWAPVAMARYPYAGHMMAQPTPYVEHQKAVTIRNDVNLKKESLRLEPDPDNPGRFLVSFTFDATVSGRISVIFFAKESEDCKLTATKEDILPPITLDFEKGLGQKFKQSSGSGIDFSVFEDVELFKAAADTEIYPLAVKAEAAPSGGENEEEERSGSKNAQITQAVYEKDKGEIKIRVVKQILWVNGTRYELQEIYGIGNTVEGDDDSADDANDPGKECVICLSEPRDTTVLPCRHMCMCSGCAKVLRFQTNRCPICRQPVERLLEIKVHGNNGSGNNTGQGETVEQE
B2: Protein GLUTAMINE DUMPER 1 (Arabidopsis thaliana (Mouse-ear cress)), O81775 (parent)
chain: B1 chain
partner: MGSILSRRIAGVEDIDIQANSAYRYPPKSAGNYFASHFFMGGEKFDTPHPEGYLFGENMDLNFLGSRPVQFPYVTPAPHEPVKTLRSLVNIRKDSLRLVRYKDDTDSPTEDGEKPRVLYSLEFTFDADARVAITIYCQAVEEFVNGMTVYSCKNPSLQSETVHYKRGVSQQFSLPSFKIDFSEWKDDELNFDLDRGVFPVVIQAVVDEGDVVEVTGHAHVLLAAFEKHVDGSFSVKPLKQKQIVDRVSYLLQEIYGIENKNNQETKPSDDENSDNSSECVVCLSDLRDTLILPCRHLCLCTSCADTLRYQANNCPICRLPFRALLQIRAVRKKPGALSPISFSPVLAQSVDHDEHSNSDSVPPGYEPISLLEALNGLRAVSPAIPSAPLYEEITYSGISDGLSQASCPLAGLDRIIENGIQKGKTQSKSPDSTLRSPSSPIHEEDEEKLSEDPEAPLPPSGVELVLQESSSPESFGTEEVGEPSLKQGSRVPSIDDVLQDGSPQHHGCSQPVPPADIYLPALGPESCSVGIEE

Variants of: B1
Conditions: with lofg2_arath LOG2, Q9S752

Variant | effect of a mutation on the interaction
MRPLSVQSKFEDVATSTSVNHHGVTPQSPWHSPVPYLFGGLAAMLGLIAFALLILACSYWRLSSSGEEDGQNVDEEKESRSGDKAANGAYEEKFLVIMAREDLPRYLATPAMKKCTCGGHEGKMVISQEESVAKEEEKMREGEEEKVKDTGETTTTSH [G100R] | disrupting interaction

Variants of: B1
Conditions: with lofg2_arath LOG2, Q9S752
Remark: another data set of the same source

Variant | effect of a mutation on the interaction
MRPLSVQSKFEDVATSTSVNHHGVTPQSPWHSPVPYLFGGLAAMLGLIAFALLILACSYWRLSSSGEEDGQNVDEEKESRSGDKAANGAYEEKFLFFFFFEDLPRYLATPAMKKCTCGGHEGKMVISQEESVAKEEEKMREGEEEKVKDTGETTTTSH [V96F;I97F;M98F;A99F;G100F] | disrupting interaction

Variants of: B2
Conditions: with mgrn1_rat Mgrn1, Q5XIQ4

Variant | effect of a mutation on the interaction
MRPLSVQSKFEDVATSTSVNHHGVTPQSPWHSPVPYLFGGLAAMLGLIAFALLILACSYWRLSSSGEEDGQNVDEEKESRSGDKAANGAYEEKFLVIMAREDLPRYLATPAMKKCTCGGHEGKMVISQEESVAKEEEKMREGEEEKVKDTGETTTTSH [G100R] | disrupting interaction

Source: IntAct's records for PubMed 24036454
